The values below are quoted from earlier work in PMC3382066.

Values joined by “and” are separate entries in the source; they are usually repeats but may differ in a detail not shown here. Equal entries are not always repeated.

As usually defined, the Ki is a dissociation constant, usually derived from enzyme kinetics or from competition with a known ligand. A word on the Kd: it is a measure of binding affinity in units of concentration.

Series [1] addresses smooth muscle myosin truncated fragment (UniProt P35749).
Series [2] concerns the target smooth muscle myosin (unphosphorylated) (Gallus gallus) (UniProt P10587).
Another series deals with calmodulin (UniProt P0DP23).

UniProt P35749, sequence (P35749 1-1175): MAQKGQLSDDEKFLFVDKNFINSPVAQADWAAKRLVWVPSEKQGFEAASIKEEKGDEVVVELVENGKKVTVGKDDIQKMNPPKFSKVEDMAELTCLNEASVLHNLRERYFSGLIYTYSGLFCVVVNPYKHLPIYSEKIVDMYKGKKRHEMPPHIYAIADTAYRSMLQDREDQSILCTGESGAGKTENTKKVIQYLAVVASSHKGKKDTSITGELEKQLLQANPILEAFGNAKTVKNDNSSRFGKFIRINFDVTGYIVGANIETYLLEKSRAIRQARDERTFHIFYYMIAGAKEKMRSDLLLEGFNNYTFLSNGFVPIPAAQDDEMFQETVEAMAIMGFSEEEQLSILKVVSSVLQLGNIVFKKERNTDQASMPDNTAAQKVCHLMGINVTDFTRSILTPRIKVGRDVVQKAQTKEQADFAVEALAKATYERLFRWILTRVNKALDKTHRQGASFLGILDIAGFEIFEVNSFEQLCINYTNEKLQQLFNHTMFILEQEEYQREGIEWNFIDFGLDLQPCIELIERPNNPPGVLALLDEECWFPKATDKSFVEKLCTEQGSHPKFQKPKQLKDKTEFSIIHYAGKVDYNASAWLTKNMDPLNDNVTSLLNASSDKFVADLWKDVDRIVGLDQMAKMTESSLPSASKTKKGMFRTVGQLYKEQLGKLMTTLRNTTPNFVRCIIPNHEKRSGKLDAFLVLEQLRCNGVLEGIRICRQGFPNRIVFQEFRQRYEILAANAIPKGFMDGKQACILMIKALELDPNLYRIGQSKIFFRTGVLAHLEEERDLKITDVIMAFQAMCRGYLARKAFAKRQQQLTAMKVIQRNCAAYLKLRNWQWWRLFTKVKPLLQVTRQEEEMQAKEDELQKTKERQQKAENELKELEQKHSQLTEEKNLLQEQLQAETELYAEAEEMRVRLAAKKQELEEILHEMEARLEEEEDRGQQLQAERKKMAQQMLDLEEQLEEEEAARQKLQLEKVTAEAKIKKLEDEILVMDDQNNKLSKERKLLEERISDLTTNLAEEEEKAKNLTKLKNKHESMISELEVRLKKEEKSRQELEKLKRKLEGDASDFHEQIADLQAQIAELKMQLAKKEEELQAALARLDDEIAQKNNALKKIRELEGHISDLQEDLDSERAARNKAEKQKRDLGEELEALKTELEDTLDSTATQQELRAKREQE
MLCK, sequence (P11799 935-1906): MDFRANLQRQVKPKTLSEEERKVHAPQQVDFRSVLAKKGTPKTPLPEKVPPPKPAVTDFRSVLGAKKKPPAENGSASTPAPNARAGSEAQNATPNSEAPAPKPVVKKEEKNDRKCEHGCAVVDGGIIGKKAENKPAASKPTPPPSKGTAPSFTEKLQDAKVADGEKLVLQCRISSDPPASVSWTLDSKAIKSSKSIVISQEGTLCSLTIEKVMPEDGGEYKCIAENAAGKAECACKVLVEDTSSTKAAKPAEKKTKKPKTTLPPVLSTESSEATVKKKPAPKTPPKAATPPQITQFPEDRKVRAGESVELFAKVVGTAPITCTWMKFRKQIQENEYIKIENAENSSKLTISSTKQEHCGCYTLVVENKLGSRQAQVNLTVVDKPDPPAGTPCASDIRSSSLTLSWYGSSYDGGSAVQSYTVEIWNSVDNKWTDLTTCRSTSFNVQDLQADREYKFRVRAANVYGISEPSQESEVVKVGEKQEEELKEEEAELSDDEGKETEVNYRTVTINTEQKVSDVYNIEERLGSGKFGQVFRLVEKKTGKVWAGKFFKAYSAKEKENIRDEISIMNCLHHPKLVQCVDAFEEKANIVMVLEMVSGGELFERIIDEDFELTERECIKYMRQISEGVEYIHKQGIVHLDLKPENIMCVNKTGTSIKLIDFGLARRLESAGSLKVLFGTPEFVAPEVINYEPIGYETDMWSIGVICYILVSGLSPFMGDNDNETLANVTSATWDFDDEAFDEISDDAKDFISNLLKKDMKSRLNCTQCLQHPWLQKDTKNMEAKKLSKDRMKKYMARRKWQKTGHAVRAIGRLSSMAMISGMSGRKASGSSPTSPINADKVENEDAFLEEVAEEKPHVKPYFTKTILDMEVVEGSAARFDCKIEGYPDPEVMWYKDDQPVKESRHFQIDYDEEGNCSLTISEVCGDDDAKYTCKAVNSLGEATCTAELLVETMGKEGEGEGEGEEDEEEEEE
UniProt P10587, sequence (P10587 2-1979): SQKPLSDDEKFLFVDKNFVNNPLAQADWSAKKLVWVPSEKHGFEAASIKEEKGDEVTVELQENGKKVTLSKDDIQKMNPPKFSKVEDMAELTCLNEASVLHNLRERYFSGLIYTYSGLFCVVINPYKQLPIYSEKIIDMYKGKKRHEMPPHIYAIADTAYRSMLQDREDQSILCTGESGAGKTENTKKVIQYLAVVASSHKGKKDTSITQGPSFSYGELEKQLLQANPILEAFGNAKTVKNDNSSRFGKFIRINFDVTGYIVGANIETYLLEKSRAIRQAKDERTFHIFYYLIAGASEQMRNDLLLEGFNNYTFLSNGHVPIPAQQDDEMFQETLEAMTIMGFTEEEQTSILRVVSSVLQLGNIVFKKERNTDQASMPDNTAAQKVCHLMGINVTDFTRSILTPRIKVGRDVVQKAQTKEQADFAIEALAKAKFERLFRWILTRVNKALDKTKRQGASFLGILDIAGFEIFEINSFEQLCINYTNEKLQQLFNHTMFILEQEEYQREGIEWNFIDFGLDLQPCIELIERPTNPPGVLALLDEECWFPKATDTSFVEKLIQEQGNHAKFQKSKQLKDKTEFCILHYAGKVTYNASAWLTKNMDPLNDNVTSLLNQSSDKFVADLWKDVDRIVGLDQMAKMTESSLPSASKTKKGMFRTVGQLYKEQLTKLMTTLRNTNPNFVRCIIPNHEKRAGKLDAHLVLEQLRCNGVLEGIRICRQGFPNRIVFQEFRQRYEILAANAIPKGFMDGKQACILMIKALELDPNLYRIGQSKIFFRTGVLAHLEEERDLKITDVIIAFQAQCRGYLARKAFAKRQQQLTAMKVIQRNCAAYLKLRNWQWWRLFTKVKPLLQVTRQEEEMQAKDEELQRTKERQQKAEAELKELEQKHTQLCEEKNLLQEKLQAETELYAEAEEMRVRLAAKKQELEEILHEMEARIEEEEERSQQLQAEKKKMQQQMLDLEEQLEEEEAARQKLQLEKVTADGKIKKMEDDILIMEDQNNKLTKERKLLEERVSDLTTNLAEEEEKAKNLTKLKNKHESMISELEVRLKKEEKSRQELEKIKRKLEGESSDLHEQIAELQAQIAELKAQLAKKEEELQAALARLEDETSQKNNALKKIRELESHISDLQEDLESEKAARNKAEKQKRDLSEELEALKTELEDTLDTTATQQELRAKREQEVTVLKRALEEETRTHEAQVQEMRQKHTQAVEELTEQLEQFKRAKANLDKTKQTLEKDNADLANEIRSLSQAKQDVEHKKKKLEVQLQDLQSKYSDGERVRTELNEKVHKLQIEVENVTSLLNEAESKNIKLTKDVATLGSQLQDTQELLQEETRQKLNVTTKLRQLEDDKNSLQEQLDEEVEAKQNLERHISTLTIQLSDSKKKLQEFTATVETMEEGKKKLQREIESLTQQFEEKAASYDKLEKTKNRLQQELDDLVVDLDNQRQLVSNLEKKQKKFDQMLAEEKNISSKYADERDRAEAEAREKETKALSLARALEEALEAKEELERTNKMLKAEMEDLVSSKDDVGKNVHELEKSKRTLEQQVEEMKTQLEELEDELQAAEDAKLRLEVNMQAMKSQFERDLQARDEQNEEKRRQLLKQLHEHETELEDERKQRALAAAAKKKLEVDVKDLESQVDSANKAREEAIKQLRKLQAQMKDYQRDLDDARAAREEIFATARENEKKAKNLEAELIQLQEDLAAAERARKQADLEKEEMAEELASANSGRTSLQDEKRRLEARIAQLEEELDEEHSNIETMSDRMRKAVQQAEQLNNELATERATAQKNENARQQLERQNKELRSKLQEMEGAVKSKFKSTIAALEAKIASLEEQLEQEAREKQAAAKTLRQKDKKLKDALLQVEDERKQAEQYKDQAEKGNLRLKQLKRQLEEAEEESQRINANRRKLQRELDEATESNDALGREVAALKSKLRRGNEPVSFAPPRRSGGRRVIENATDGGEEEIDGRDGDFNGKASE

On to telokin telokin (from UniProt Q15746), for which the Ki in series [1] is 40 µM and 20 µM.

MLCK (from UniProt P11799): the Kd in series [2] is 0.8 µM.

“MLCK N-terminal actin-binding region (from UniProt Q15746)”: the equilibrium dissociation constant (Kd) with calmodulin is 5 µM.
